Results as given in US20210107988A1 (Genmab, published 2021).

What was measured:
Assay in all cases: FcγR ELISA, 20 µg/mL antibody
[1] = molecular target: T1, dimeric, His-tagged, C-terminally biotinylated ECD of FcγRIIA allotype 131R (Homo sapiens (Human), UniProt P12318 36-215, C-terminally biotinylated)
T1 chain: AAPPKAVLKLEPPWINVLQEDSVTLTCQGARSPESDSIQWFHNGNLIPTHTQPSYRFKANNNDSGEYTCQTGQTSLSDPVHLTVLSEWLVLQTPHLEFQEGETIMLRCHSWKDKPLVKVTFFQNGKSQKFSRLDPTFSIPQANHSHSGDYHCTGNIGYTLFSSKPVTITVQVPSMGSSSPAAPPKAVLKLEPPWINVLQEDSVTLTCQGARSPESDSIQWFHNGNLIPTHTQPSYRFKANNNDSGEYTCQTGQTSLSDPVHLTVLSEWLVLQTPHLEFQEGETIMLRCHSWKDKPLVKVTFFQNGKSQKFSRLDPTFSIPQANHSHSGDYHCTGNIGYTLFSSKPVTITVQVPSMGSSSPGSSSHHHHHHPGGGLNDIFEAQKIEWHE

[2] = molecular target: T2, dimeric, His-tagged, C-terminally biotinylated ECD of FcγRIIB (Homo sapiens (Human), UniProt P31994 44-223, C-terminally biotinylated)
T2 construct: also called diFCGR2B-HisBAP
T2 sequence: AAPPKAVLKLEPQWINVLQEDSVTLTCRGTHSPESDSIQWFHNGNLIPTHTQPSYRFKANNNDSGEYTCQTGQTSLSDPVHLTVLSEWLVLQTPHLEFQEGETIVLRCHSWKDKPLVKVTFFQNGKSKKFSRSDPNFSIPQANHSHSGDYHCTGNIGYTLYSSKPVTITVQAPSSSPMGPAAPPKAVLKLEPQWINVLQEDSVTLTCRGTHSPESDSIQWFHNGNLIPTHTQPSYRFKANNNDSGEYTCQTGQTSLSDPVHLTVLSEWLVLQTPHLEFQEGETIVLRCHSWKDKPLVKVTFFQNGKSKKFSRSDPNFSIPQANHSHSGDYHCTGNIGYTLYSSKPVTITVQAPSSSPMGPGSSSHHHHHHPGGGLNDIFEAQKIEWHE

[3] = molecular target: T3, dimeric, His-tagged, C-terminally biotinylated ECD of FcγRIIA allotype 131H (Homo sapiens (Human), UniProt P12318 34-215, C-terminally biotinylated)
T3 sequence: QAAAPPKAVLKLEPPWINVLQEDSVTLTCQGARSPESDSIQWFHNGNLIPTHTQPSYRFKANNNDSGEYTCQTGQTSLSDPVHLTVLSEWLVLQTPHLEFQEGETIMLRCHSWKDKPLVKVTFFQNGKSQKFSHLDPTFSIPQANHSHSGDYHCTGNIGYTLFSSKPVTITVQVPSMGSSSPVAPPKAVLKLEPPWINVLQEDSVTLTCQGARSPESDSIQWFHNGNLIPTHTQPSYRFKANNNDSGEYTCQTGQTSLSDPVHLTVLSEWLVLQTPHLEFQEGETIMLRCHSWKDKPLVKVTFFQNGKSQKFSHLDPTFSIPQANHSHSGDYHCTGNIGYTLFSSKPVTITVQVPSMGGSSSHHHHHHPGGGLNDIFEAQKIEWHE

Measured: binding result

B1: IgG1-CAMPATH-1H-E430G-K439E-Q438N (antibody)
heavy: QVQLQESGPGLVRPSQTLSLTCTVSGFTFTDFYMNWVRQPPGRGLEWIGFIRDKAKGYTTEYNPSVKGRVTMLVDTSKNQFSLRLSSVTAADTAVYYCAREGHTAAPFDYWGQGSLVTVSSASTKGPSVFPLAPSSKSTSGGTAALGCLVKDYFPEPVTVSWNSGALTSGVHTFPAVLQSSGLYSLSSVVTVPSSSLGTQTYICNVNHKPSNTKVDKRVEPKSCDKTHTCPPCPAPELLGGPSVFLFPPKPKDTLMISRTPEVTCVVVDVSHEDPEVKFNWYVDGVEVHNAKTKPREEQYNSTYRVVSVLTVLHQDWLNGKEYKCKVSNKALPAPIEKTISKAKGQPREPQVYTLPPSREEMTKNQVSLTCLVKGFYPSDIAVEWESNGQPENNYKTTPPVLDSDGSFFLYSKLTVDKSRWQQGNVFSCSVMHGALHNHYTNESLSLSPGK
light: not shown
notes: also called IgG1-Campath-E430G Q438N/K439E
binds: all assays above

B2: IgG1-CAMPATH-1H-E430G-S440K-Y436K (antibody)
heavy: QVQLQESGPGLVRPSQTLSLTCTVSGFTFTDFYMNWVRQPPGRGLEWIGFIRDKAKGYTTEYNPSVKGRVTMLVDTSKNQFSLRLSSVTAADTAVYYCAREGHTAAPFDYWGQGSLVTVSSASTKGPSVFPLAPSSKSTSGGTAALGCLVKDYFPEPVTVSWNSGALTSGVHTFPAVLQSSGLYSLSSVVTVPSSSLGTQTYICNVNHKPSNTKVDKRVEPKSCDKTHTCPPCPAPELLGGPSVFLFPPKPKDTLMISRTPEVTCVVVDVSHEDPEVKFNWYVDGVEVHNAKTKPREEQYNSTYRVVSVLTVLHQDWLNGKEYKCKVSNKALPAPIEKTISKAKGQPREPQVYTLPPSREEMTKNQVSLTCLVKGFYPSDIAVEWESNGQPENNYKTTPPVLDSDGSFFLYSKLTVDKSRWQQGNVFSCSVMHGALHNHKTQKKLSLSPGK
light: not shown
notes: also called IgG1-Campath-E430G Y436K/S440K
binds: all assays above

B3: IgG1-CAMPATH-1H-E430G-S440K-Q438R (antibody)
heavy: QVQLQESGPGLVRPSQTLSLTCTVSGFTFTDFYMNWVRQPPGRGLEWIGFIRDKAKGYTTEYNPSVKGRVTMLVDTSKNQFSLRLSSVTAADTAVYYCAREGHTAAPFDYWGQGSLVTVSSASTKGPSVFPLAPSSKSTSGGTAALGCLVKDYFPEPVTVSWNSGALTSGVHTFPAVLQSSGLYSLSSVVTVPSSSLGTQTYICNVNHKPSNTKVDKRVEPKSCDKTHTCPPCPAPELLGGPSVFLFPPKPKDTLMISRTPEVTCVVVDVSHEDPEVKFNWYVDGVEVHNAKTKPREEQYNSTYRVVSVLTVLHQDWLNGKEYKCKVSNKALPAPIEKTISKAKGQPREPQVYTLPPSREEMTKNQVSLTCLVKGFYPSDIAVEWESNGQPENNYKTTPPVLDSDGSFFLYSKLTVDKSRWQQGNVFSCSVMHGALHNHYTRKKLSLSPGK
light: not shown
notes: also called IgG1-Campath-E430G Q438R/S440K
binds: all assays above

B4: IgG1-CAMPATH-1H-E430G-S440K-Q438N (antibody)
heavy: QVQLQESGPGLVRPSQTLSLTCTVSGFTFTDFYMNWVRQPPGRGLEWIGFIRDKAKGYTTEYNPSVKGRVTMLVDTSKNQFSLRLSSVTAADTAVYYCAREGHTAAPFDYWGQGSLVTVSSASTKGPSVFPLAPSSKSTSGGTAALGCLVKDYFPEPVTVSWNSGALTSGVHTFPAVLQSSGLYSLSSVVTVPSSSLGTQTYICNVNHKPSNTKVDKRVEPKSCDKTHTCPPCPAPELLGGPSVFLFPPKPKDTLMISRTPEVTCVVVDVSHEDPEVKFNWYVDGVEVHNAKTKPREEQYNSTYRVVSVLTVLHQDWLNGKEYKCKVSNKALPAPIEKTISKAKGQPREPQVYTLPPSREEMTKNQVSLTCLVKGFYPSDIAVEWESNGQPENNYKTTPPVLDSDGSFFLYSKLTVDKSRWQQGNVFSCSVMHGALHNHYTNKKLSLSPGK
light: not shown
binds: all assays above

B5: IgG1-CAMPATH-1H-E430G-K439E-Q438R (antibody)
heavy: QVQLQESGPGLVRPSQTLSLTCTVSGFTFTDFYMNWVRQPPGRGLEWIGFIRDKAKGYTTEYNPSVKGRVTMLVDTSKNQFSLRLSSVTAADTAVYYCAREGHTAAPFDYWGQGSLVTVSSASTKGPSVFPLAPSSKSTSGGTAALGCLVKDYFPEPVTVSWNSGALTSGVHTFPAVLQSSGLYSLSSVVTVPSSSLGTQTYICNVNHKPSNTKVDKRVEPKSCDKTHTCPPCPAPELLGGPSVFLFPPKPKDTLMISRTPEVTCVVVDVSHEDPEVKFNWYVDGVEVHNAKTKPREEQYNSTYRVVSVLTVLHQDWLNGKEYKCKVSNKALPAPIEKTISKAKGQPREPQVYTLPPSREEMTKNQVSLTCLVKGFYPSDIAVEWESNGQPENNYKTTPPVLDSDGSFFLYSKLTVDKSRWQQGNVFSCSVMHGALHNHYTRESLSLSPGK
light: not shown
binds: all assays above

B6: IgG1-CAMPATH-1H-E430G-K439E-Y436N (antibody)
heavy: QVQLQESGPGLVRPSQTLSLTCTVSGFTFTDFYMNWVRQPPGRGLEWIGFIRDKAKGYTTEYNPSVKGRVTMLVDTSKNQFSLRLSSVTAADTAVYYCAREGHTAAPFDYWGQGSLVTVSSASTKGPSVFPLAPSSKSTSGGTAALGCLVKDYFPEPVTVSWNSGALTSGVHTFPAVLQSSGLYSLSSVVTVPSSSLGTQTYICNVNHKPSNTKVDKRVEPKSCDKTHTCPPCPAPELLGGPSVFLFPPKPKDTLMISRTPEVTCVVVDVSHEDPEVKFNWYVDGVEVHNAKTKPREEQYNSTYRVVSVLTVLHQDWLNGKEYKCKVSNKALPAPIEKTISKAKGQPREPQVYTLPPSREEMTKNQVSLTCLVKGFYPSDIAVEWESNGQPENNYKTTPPVLDSDGSFFLYSKLTVDKSRWQQGNVFSCSVMHGALHNHNTQESLSLSPGK
light: not shown
notes: also called IgG1-Campath-E430G Y436N/K439E
binds: all assays above

B7: IgG1-CAMPATH-1H-E430G-S440K-Y436N (antibody)
heavy: QVQLQESGPGLVRPSQTLSLTCTVSGFTFTDFYMNWVRQPPGRGLEWIGFIRDKAKGYTTEYNPSVKGRVTMLVDTSKNQFSLRLSSVTAADTAVYYCAREGHTAAPFDYWGQGSLVTVSSASTKGPSVFPLAPSSKSTSGGTAALGCLVKDYFPEPVTVSWNSGALTSGVHTFPAVLQSSGLYSLSSVVTVPSSSLGTQTYICNVNHKPSNTKVDKRVEPKSCDKTHTCPPCPAPELLGGPSVFLFPPKPKDTLMISRTPEVTCVVVDVSHEDPEVKFNWYVDGVEVHNAKTKPREEQYNSTYRVVSVLTVLHQDWLNGKEYKCKVSNKALPAPIEKTISKAKGQPREPQVYTLPPSREEMTKNQVSLTCLVKGFYPSDIAVEWESNGQPENNYKTTPPVLDSDGSFFLYSKLTVDKSRWQQGNVFSCSVMHGALHNHNTQKKLSLSPGK
light: not shown
binds: all assays above

B8: IgG1-CAMPATH-1H-E430G-K439E-Y436K (antibody)
heavy: QVQLQESGPGLVRPSQTLSLTCTVSGFTFTDFYMNWVRQPPGRGLEWIGFIRDKAKGYTTEYNPSVKGRVTMLVDTSKNQFSLRLSSVTAADTAVYYCAREGHTAAPFDYWGQGSLVTVSSASTKGPSVFPLAPSSKSTSGGTAALGCLVKDYFPEPVTVSWNSGALTSGVHTFPAVLQSSGLYSLSSVVTVPSSSLGTQTYICNVNHKPSNTKVDKRVEPKSCDKTHTCPPCPAPELLGGPSVFLFPPKPKDTLMISRTPEVTCVVVDVSHEDPEVKFNWYVDGVEVHNAKTKPREEQYNSTYRVVSVLTVLHQDWLNGKEYKCKVSNKALPAPIEKTISKAKGQPREPQVYTLPPSREEMTKNQVSLTCLVKGFYPSDIAVEWESNGQPENNYKTTPPVLDSDGSFFLYSKLTVDKSRWQQGNVFSCSVMHGALHNHKTQESLSLSPGK
light: not shown
binds: all assays above
